T1: human GIP receptor (human) (UniProt P48546)
T1 sequence (looked up): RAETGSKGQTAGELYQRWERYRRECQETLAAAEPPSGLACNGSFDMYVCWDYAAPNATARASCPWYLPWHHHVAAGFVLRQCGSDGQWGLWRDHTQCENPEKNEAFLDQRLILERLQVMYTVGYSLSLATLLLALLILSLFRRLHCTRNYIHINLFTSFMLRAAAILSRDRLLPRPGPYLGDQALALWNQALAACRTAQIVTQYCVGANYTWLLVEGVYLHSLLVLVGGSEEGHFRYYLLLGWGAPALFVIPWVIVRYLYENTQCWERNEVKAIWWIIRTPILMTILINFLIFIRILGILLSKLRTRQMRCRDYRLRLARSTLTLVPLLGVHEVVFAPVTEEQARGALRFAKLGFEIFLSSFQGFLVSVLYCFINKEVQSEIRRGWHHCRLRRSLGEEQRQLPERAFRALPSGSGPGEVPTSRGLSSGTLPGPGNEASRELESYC


How the values were obtained:
Experiment in all cases: cell-based or functional assay
[1] = biological target: human glucagon receptor (human) (UniProt P47871)
[2] = biological target: hGLP-1R (Homo sapiens, UniProt P43220)
[3] = biological target: T1, human GIP receptor (human)

Chain of human glucagon receptor (human) (P47871 26-477): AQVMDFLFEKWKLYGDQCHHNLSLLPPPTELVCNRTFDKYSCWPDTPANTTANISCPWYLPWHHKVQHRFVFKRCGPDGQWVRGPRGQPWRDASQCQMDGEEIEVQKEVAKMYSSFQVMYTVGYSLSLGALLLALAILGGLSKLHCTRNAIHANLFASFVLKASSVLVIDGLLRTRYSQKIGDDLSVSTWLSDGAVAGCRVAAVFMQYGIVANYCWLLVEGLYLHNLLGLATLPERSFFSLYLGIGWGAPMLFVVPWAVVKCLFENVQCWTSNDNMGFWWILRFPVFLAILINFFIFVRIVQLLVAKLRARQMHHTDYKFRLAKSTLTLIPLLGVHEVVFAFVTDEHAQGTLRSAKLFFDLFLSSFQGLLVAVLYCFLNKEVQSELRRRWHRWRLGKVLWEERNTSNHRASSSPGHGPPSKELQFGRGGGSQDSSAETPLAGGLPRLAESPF
Chain of hGLP-1R (P43220 24-463): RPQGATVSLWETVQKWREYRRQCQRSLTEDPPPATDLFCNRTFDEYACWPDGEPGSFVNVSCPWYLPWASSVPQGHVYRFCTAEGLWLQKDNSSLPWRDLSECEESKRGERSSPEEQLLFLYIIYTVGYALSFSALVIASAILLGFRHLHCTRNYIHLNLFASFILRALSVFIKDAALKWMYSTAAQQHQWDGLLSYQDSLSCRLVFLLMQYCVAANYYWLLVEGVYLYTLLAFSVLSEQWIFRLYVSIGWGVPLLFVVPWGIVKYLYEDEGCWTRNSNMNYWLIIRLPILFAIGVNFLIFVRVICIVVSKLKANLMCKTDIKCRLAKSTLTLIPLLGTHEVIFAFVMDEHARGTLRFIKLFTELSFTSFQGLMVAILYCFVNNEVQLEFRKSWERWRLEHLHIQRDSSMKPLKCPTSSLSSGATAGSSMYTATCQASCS

| Binder | Relative cAMP EC50 [1] | cAMP Rel EC50, nM (1% HSA) [1] | Relative cAMP EC50 [2] | cAMP Rel EC50, nM (1% HSA) [2] | Relative cAMP EC50 [3] | cAMP Rel EC50, nM (1% HSA) [3] | Relative cAMP EC50, nM (0.1% casein) [1] | cAMP Rel EC50 (receptor-expressing HEK-293 cells, 1% HSA) [1] | Relative cAMP EC50, nM (0.1% casein) [2] | cAMP Rel EC50 (receptor-expressing HEK-293 cells, 1% HSA) [2] | Relative cAMP EC50, nM (0.1% casein) [3] | cAMP Rel EC50 (receptor-expressing HEK-293 cells, 1% HSA) [3] |
| --- | --- | --- | --- | --- | --- | --- | --- | --- | --- | --- | --- | --- |
| YXQGTXTSDXXIXLDXKAQXXFIEXLAEGGPSSGEPPPE (synthetic construct; SITE 2: note = 2-Aminoisobutyric Acid; SITE 6: note = alpha-methyl-2-fluoro-L-phenylalanine; SITE 10: note = 3-(4-Pyridyl)-L-alanine; SITE 11: note = alpha-methyl-L-serine; SITE 13: note = alpha-methyl-leucine; SITE 16: note = L-ornithine; SITE 17: note = Lysine is chemically mo) [Example 437] | 1.76 nM | 188 nM | 0.421 nM | 26.9 nM | 0.0872 nM | 16.9 nM | – | – | – | – | – | – |
| YXQGTXTSDXXIXLDXKAQXXFIEXLQEGGPSSGEPPPE (synthetic construct; SITE 2: note = 2-Aminoisobutyric Acid; SITE 6: note = alpha-methyl-2-fluoro-L-phenylalanine; SITE 10: note = 3-(4-Pyridyl)-L-alanine; SITE 11: note = alpha-methyl-L-serine; SITE 13: note = alpha-methyl-leucine; SITE 16: note = L-ornithine; SITE 17: note = Lysine is chemically mo) [Example 439] | 4.38 nM | 165 nM | 0.293 nM | 15.1 nM | 0.0634 nM | 14.6 nM | – | – | – | – | – | – |
| YXQGTXTSDXXIXLDXKAQXXFIEXLIEGGPSSGEPPPE (synthetic construct; SITE 2: note = 2-Aminoisobutyric Acid; SITE 6: note = alpha-methyl-2-fluoro-L-phenylalanine; SITE 10: note = 3-(4-Pyridyl)-L-alanine; SITE 11: note = alpha-methyl-L-serine; SITE 13: note = alpha-methyl-leucine; SITE 16: note = L-ornithine; SITE 17: note = Lysine is chemically mo) [Example 453] | – | – | – | – | – | – | 7.37 nM | 261 nM | 0.374 nM | 20.6 nM | 0.0184 nM | 1.95 nM |
| YXQGTXTSDXXIXLDXKAQXNFIEYLIEGGPSSGEPPPE (synthetic construct; SITE 2: note = 2-Aminoisobutyric Acid; SITE 6: note = alpha-methyl-2-fluoro-L-phenylalanine; SITE 10: note = 3-(4-Pyridyl)-L-alanine; SITE 11: note = alpha-methyl-L-serine; SITE 13: note = alpha-methyl-leucine; SITE 16: note = L-ornithine; SITE 17: note = Lysine is chemically mo) [Example 449] | – | – | – | – | – | – | 11.5 nM | 424 nM | 0.568 nM | 18.9 nM | 0.0205 nM | 1.66 nM |
| YXQGTXTSDXXIXLDXKAQXTFIEXLIEGGPSSGEPPPE (synthetic construct; SITE 2: note = 2-Aminoisobutyric Acid; SITE 6: note = alpha-methyl-2-fluoro-L-phenylalanine; SITE 10: note = 3-(4-Pyridyl)-L-alanine; SITE 11: note = alpha-methyl-L-serine; SITE 13: note = alpha-methyl-leucine; SITE 16: note = L-ornithine; SITE 17: note = Lysine is chemically mo) [Example 457] | – | – | – | – | – | – | 2.86 nM | 333 nM | 0.226 nM | 11.7 nM | 0.00918 nM | 0.881 nM |
| YXQGTXTSDXXIXLDXKAQXNFIEXLQEGGPSSGEPPPE (synthetic construct; SITE 2: note = 2-Aminoisobutyric Acid; SITE 6: note = alpha-methyl-2-fluoro-L-phenylalanine; SITE 10: note = 3-(4-Pyridyl)-L-alanine; SITE 11: note = alpha-methyl-L-serine; SITE 13: note = alpha-methyl-leucine; SITE 16: note = L-ornithine; SITE 17: note = Lysine is chemically mo) [Example 450] | – | – | – | – | – | – | 4.84 nM | 553 nM | 0.43 nM | 18.4 nM | 0.0448 nM | 3.75 nM |

Other lines, results leading:

| Relative cAMP EC50 [1] | cAMP Rel EC50, nM (1% HSA) [1] | Relative cAMP EC50 [2] | cAMP Rel EC50, nM (1% HSA) [2] | Relative cAMP EC50 [3] | cAMP Rel EC50, nM (1% HSA) [3] | Relative cAMP EC50, nM (0.1% casein) [1] | cAMP Rel EC50 (receptor-expressing HEK-293 cells, 1% HSA) [1] | Relative cAMP EC50, nM (0.1% casein) [2] | cAMP Rel EC50 (receptor-expressing HEK-293 cells, 1% HSA) [2] | Relative cAMP EC50, nM (0.1% casein) [3] | cAMP Rel EC50 (receptor-expressing HEK-293 cells, 1% HSA) [3] | Binder |
| --- | --- | --- | --- | --- | --- | --- | --- | --- | --- | --- | --- | --- |
| 6.49 nM | 1280 nM | 0.352 nM | 54.6 nM | 0.0106 nM | 1.74 nM | – | – | – | – | – | – | YXQGTXTSDXXIXLDXIAQXXFIEXLIKGGPSSGEPPPE (not fully specified; synthetic construct; SITE 2: note = 2-Aminoisobutyric Acid; SITE 6: note = alpha-methyl-2-fluoro-L-phenylalanine; SITE 10: note = 3-(4-Pyridyl)-L-alanine; SITE 11: note = alpha-methyl-L-serine; SITE 13: note = alpha-methyl-leucine; SITE 16: note = L-ornithine; SITE 20: note = 2-Aminoisobutyric Acid;) [Example 444] |
| – | – | – | – | – | – | 1.89 nM | 142 nM | 0.636 nM | 31.1 nM | 0.0624 nM | 8.93 nM | YXQGTXTSDXXIXLDXKAQXXFIEYLLEGGPSSGEPPPE (synthetic construct; SITE 2: note = 2-Aminoisobutyric Acid; SITE 6: note = alpha-methyl-2-fluoro-L-phenylalanine; SITE 10: note = 3-(4-Pyridyl)-L-alanine; SITE 11: note = alpha-methyl-L-serine; SITE 13: note = alpha-methyl-leucine; SITE 16: note = L-ornithine; SITE 17: note = Lysine is chemically mo) [Example 460] |
| – | – | – | – | – | – | 9.71 nM | 1090 nM | 0.214 nM | 11.3 nM | 0.0177 nM | 1.81 nM | YXQGTXTSDXXEXLDXKAQXXFIEXLIEGGPSSGEPPPE (synthetic construct; SITE 2: note = 2-Aminoisobutyric Acid; SITE 6: note = alpha-methyl-2-fluoro-L-phenylalanine; SITE 10: note = 3-(4-Pyridyl)-L-alanine; SITE 11: note = alpha-methyl-L-serine; SITE 13: note = alpha-methyl-leucine; SITE 16: note = L-ornithine; SITE 17: note = Lysine is chemically mo) [Example 447] |
| – | – | – | – | – | – | 1.69 nM | 183 nM | 0.204 nM | 12.9 nM | 0.0148 nM | 1.62 nM | YXQGTXTSDXXIXLDXKAQXXFIEXLIEGGPSSGEPPPEEG (synthetic construct; SITE 2: note = 2-Aminoisobutyric Acid; SITE 6: note = alpha-methyl-2-fluoro-L-phenylalanine; SITE 10: note = 3-(4-Pyridyl)-L-alanine; SITE 11: note = alpha-methyl-L-serine; SITE 13: note = alpha-methyl-leucine; SITE 16: note = L-ornithine; SITE 17: note = Lysine is chemically mo) [Example 462] |

— patent publication US20240270821A1, “GIP/GLP1/GCG TRI-RECEPTOR AGONISTS AND USES THEREOF” (priority 2023, published 2024)
